This is an account of results in article PMC10708393, “The Fabrication of a Probe-Integrated Electrochemiluminescence Aptasensor Based on Double-Layered Nanochannel Array with Opposite Charges for the Sensitive Determination of C-Reactive Protein”.

Data set [1] has as its target carcinoembryonic antigen (CEA) (UniProt P06731 35-685). The data set can be described thus: electrochemiluminescence aptasensor; selectivity test; no significant ECL decrease; CRP incubation 4 °C, 1 h on BSA-blocked aptamer electrode; wash 0.01 M PBS pH 7.4; ECL read in 3 mM TPA, 0.01 M PBS pH 7.4, room temperature. The following applies: protein: commercial.
Data set [2] has as its target carbohydrate antigen 15-3 (CA15-3) (UniProt P15941 24-1097). Described as above. To be noted: protein: commercial.
The next data set concerns the target T1, C-reactive protein (CRP) (UniProt P02741 19-224).
T1 sequence: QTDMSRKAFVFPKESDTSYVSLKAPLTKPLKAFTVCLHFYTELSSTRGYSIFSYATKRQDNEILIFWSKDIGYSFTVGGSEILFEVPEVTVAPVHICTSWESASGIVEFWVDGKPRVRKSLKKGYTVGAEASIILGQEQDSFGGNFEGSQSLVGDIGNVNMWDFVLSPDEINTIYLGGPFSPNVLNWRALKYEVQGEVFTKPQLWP
In words: electrochemiluminescence aptasensor; linear response 0.01-1000 ng/mL, LOD 8.5 pg/mL; immobilized aptamer; CRP incubation 4 °C, 1 h on BSA-blocked aptamer electrode; wash 0.01 M PBS pH 7.4; ECL read in 3 mM TPA, 0.01 M PBS pH 7.4, room temperature. The following applies: protein: commercial; chain copies: 5.

carbohydrate antigen 15-3 (CA15-3), sequence (P15941 24-1097): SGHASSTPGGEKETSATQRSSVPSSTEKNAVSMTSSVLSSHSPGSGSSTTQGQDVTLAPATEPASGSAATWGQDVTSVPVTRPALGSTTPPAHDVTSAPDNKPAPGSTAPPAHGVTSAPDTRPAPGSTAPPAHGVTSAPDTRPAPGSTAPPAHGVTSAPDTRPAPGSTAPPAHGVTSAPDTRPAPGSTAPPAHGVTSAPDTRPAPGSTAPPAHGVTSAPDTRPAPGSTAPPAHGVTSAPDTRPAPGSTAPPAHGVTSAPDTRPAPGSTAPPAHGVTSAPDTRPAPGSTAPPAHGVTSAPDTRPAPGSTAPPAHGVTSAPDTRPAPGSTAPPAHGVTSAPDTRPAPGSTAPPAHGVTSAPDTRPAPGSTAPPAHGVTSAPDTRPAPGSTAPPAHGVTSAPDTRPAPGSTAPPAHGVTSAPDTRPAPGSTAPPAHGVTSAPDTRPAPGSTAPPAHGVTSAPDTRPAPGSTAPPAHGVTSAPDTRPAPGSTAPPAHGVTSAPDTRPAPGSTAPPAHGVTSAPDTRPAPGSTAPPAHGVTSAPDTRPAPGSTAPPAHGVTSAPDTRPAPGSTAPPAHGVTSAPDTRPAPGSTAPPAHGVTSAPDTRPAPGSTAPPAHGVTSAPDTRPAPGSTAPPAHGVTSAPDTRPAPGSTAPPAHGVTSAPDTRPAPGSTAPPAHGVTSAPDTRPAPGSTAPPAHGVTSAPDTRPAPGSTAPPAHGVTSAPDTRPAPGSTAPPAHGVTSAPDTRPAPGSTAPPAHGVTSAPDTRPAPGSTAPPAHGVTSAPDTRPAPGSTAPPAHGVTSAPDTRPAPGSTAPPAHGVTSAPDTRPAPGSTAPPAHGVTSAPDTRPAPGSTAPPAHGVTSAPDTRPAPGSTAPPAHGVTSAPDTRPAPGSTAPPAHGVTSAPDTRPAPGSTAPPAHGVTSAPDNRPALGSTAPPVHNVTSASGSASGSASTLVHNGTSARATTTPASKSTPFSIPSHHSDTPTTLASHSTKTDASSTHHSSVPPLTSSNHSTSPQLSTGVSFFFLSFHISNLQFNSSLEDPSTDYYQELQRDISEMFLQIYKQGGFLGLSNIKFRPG
carcinoembryonic antigen (CEA), sequence (P06731 35-685): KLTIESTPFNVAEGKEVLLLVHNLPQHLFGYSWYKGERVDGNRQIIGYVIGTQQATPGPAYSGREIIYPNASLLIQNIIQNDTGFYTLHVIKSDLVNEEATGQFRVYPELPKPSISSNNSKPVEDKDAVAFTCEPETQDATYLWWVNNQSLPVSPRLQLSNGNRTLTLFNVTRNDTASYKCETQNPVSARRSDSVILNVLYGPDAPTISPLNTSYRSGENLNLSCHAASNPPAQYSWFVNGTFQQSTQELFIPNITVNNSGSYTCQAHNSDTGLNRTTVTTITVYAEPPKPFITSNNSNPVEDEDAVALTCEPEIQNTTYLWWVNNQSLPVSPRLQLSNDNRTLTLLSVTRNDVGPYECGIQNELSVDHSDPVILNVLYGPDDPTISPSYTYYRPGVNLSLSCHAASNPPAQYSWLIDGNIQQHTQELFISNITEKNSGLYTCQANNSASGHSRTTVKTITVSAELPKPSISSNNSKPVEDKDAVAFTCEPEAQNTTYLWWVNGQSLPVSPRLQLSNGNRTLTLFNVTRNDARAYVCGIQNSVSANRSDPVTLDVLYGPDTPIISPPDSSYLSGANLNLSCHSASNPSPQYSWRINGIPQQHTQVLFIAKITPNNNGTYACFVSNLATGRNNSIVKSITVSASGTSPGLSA

With CGAAGGGGATTCGAGGGGTGATTGCGTGCTCCATTTGGTG (ssDNA, 5'-NH2) [CRP aptamer], the binding result in data set [1] is given as “no binding”; in data set [2], “no binding”; with C-reactive protein (CRP) it was “binds”.
